Experimental data reported in article PMC12120766, “Paclitaxel/Luteolin Coloaded Dual‐Functional Liposomes for Esophageal Cancer Therapy”.

Experiments:
CTNNA1 (catenin alpha 1) [1] = target: T1, CTNNA1 (catenin alpha 1) (UniProt P35221 2-906); test: MST; MST: 50 nM labeled CTNNA1 in 10 mM PBS pH 7.4, EA2 0.00153-50 uM in 10 mM PBST (0.05% Tween-20) pH 7.4; temperature not stated; conditions: tags: RED-NHS dye label; predicted mFold secondary structure
CTNNA1 (catenin alpha 1) [2] = target: T1, CTNNA1 (catenin alpha 1); test: MST; no antibody (control of the antibody competition); MST: 50 nM labeled CTNNA1 in 10 mM PBS pH 7.4, EA2 0.00153-50 uM in 10 mM PBST (0.05% Tween-20) pH 7.4; temperature not stated; conditions: tags: RED-NHS dye label; predicted mFold secondary structure

T1 sequence (P35221 2-906): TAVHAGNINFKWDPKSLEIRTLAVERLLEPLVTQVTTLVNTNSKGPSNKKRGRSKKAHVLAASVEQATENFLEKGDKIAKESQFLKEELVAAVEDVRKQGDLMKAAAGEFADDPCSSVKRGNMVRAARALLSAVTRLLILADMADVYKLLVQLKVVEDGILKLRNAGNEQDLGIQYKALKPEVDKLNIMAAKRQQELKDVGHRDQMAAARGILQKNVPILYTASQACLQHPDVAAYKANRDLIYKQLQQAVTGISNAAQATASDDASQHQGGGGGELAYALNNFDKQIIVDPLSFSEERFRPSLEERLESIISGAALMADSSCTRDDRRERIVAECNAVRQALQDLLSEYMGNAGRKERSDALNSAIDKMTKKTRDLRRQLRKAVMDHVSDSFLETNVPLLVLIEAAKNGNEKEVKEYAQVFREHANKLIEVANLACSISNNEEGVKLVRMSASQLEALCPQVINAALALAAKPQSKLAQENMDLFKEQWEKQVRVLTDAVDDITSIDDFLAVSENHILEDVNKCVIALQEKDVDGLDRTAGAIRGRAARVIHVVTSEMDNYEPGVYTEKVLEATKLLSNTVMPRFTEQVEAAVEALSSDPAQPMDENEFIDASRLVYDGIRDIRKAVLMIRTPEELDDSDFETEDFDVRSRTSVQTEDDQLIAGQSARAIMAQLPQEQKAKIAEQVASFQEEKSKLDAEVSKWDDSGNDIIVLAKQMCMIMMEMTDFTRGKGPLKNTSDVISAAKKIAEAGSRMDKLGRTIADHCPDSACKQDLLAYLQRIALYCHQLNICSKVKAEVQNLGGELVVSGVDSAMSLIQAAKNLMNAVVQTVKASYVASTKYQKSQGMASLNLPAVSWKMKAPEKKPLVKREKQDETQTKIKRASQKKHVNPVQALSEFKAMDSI

B1: EA2 (ssDNA)
DNA: AGCCTAAGCCTGTCCAGGAATCGTGCAGCCATAGCCTAAGCCTGTCCAGGAATCGATGGCTTAGTGGCACGATTAGGTC
B1 showed a Kd (CTNNA1 (catenin alpha 1) [1]) of 2070 ± 600 nM and a Kd (CTNNA1 (catenin alpha 1) [2]) of 2300 ± 600 nM.
